The labels stand for the following.
B1: MCM8-9 complex (FLAG-tagged MCM8 and MBP-tagged MCM9), wild type (complex)
chain 1: MNGEYRGRGFGRGRFQSWKRGRGGGNFSGKWREREHRPDLSKTTGKRTSEQTPQFLLSTKTPQSMQSTLDRFIPYKGWKLYFSEVYSDSSPLIEKIQAFEKFFTRHIDLYDKDEIERKGSILVDFKELTEGGEVTNLIPDIATELRDAPEKTLACMGLAIHQVLTKDLERHAAELQAQEGLSNDGETMVNVPHIHARVYNYEPLTQLKNVRANYYGKYIALRGTVVRVSNIKPLCTKMAFLCAACGEIQSFPLPDGKYSLPTKCPVPVCRGRSFTALRSSPLTVTMDWQSIKIQELMSDDQREAGRIPRTIECELVHDLVDSCVPGDTVTITGIVKVSNAEEGSRNKNDKCMFLLYIEANSISNSKGQKTKSSEDGCKHGMLMEFSLKDLYAIQEIQAEENLFKLIVNSLCPVIFGHELVKAGLALALFGGSQKYADDKNRIPIRGDPHILVVGDPGLGKSQMLQAACNVAPRGVYVCGNTTTTSGLTVTLSKDSSSGDFALEAGALVLGDQGICGIDEFDKMGNQHQALLEAMEQQSISLAKAGVVCSLPARTSIIAAANPVGGHYNKAKTVSENLKMGSALLSRFDLVFILLDTPNEHHDHLLSEHVIAIRAGKQRTISSATVARMNSQDSNTSVLEVVSEKPLSERLKVVPGETIDPIPHQLLRKYIGYARQYVYPRLSTEAARVLQDFYLELRKQSQRLNSSPITTRQLESLIRLTEARARLELREEATKEDAEDIVEIMKYSMLGTYSDEFGNLDFERSQHGSGMSNRSTAKRFISALNNVAERTYNNIFQFHQLRQIAKELNIQVADFENFIGSLNDQGYLLKKGPKVYQLQTM
chain 2: not shown
notes: MCM8, human; vector pFB-FLAG-MCM8; MCM9, human; vector pFB-MBP-MCM9; Major species is a heterodimer; tetramers and hexamers are also present; also called MCM8-9 heterodimer; dimer-rich MCM8-9; source: MBP tag not cleaved; for the amylose pull-down captured from Sf9 lysate on amylose resin and washed; not shown: FLAG, N-terminal, kept; MBP, N-terminal, kept

Data set [1] deals with the molecule itself. The data set can be described thus: mass photometry; protein alone in solution, no DNA; 50-200 nM final protein in 50 mM Tris-HCl pH 7.5, 100 mM NaCl; oligomeric state of MCM8-9 unchanged with ATP-γ-S.
In data set [2] the target is B1. Nature of the data set: pull-down; MBP-MCM9/FLAG-MCM8 (or pMCM8-9, with or without λ-phosphatase treatment on the resin) immobilized on amylose resin from Sf9 lysate and washed; 1 µg wild type or mutant HROB in 50 mM Tris-HCl pH 7.5, 3 mM EDTA, 100 mM NaCl, 1 h at 4 °C; maltose elution, western blotting. Conditions: both partners purified.

Take B1: in data set [1], the binding result was “binds”.

B2: HROB-L405D (natural protein, human, UniProt Q8N3J3-4 1-646, looked up)
chain: MACSLQKLFAVEEEFEDEDFLSAVEDAENRFTGSLPVNAGRLRPVSSRPQETVQAQSSRLLLLHPTAPSEALGLPDLDLCLPASSTPSADSRPSCIGAAPLRPVSTSSSWIGNQRRVTVTEVLREPARPQSSALHPLLTFESQQQQVGGFEGPEQDEFDKVLASMELEEPGMELECGVSSEAIPILPAQQREGSVLAKKARVVDLSGSCQKGPVPAIHKAGIMSAQDESLDPVIQCRTPRPPLRPGAVGHLPVPTALTVPTQQLHWEVCPQRSPVQALQPLQAARGTIQSSPQNRFPCQPFQSPSSWLSGKAHLPRPRTPNSSCSTPSRTSSGLFPRIPLQPQAPVSSIGSPVGTPKGPQGALQTPIVTNHLVQLVTAASRTPQQPTHPSTRAKTRRFPGPAGIDPHQQSGRSLEDIMVSAPQTPTHGALAKFQTEIVASSQASVEEDFGRGPWLTMKSTLGLDERDPSCFLCTYSIVMVLRKAALKQLPRNKVPNMAVMIKSLTRSTMDASVVFKDPTGEMQGTVHRLLLETCQNELKPGSVLLLKQIGVFSPSLRNHYLNVTPNNLVHIYSPDSGDGSFLKPSQPFPKDSGSFQHDVAAKPEEGFRTAQNLEAEASPEEELPEADDLDGLLSELPEDFFCGTSS
notes: HROB, human; numbers count on: isoform 1 (Q8N3J3-1); not shown: FLAG, C-terminal, kept
Regarding B2, the binding result in data set [2] was “binds”.

(Values after article PMC11055865, “Mechanism of DNA unwinding by MCM8-9 in complex with HROB” (Nature Communications, 2023).)
